The values that follow come from PMC6717114.

The koff is a measure of how fast the partners let go of each other. A low value points to slow dissociation.

Assay [1] deals with Mouse Cdh23 EC1-2 wild-type (mouse) (UniProt Q99PF4). Briefly: single-molecule force spectroscopy.
Assay [2] has as its target Mouse Cdh23 EC1-2(D101G) (mouse). The assay can be described thus: single-molecule force spectroscopy.

Sequence of Mouse Cdh23 EC1-2 wild-type (mouse) (Q99PF4 24-228): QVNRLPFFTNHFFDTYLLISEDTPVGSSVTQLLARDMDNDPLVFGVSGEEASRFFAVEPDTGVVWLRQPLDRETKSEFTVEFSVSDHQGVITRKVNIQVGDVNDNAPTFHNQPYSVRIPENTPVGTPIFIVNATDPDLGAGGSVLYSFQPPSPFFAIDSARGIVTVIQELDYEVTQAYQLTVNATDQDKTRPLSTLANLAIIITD

As to “Mouse Pcdh15 EC1-2(D157G) (domain or fragment)”, the koff in assay [1] amounted to 0.044 s⁻¹. As to “Mouse Pcdh15 EC1-2 wild-type (from UniProt Q99PJ1-18 27-259) (domain or fragment)”, the koff in assay [2] amounted to 0.0097 s⁻¹.
